From patent publication US20230227537A1

Target: recombinant prefusion stabilized SARS-CoV-2-2P spike protein (SARS-CoV-2) (UniProt P0DTC2)

Substance: D72-15: VHH72-GS-hIgG1hinge-hIgG1Fc-L234A-L235A-P329G (Fc fusion)
- EC50: 0.014 µg/mL
